Data published in the RNAGym collection of RNA variant scans (doi:10.1073/pnas.2313332121).

B1: TPR t1 (parent)
chain: GACCAAUCUGCCCUCAGAGCUCGAGAACAUCUUCGGAUGCAGAGGAGGCAGGCUUCGGUGGCGCGAUAGCGCCAACGUCCUCAACCUCCAAUGCAUCCCACCACAUGAUGAUGCCUGAAGAGCCUUGGUUUUUUG

Variants of: B1
Test: polymerase ribozyme fitness, log enrichment relative to wild type (log ratio); higher = more active; in vitro selection for triplet polymerase activity
Outline: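 Fitness measures genotype enrichment against wild-type enrichment on a logarithmic scale, with inverse-variance-weighted averaging of replicates. The logarithm is base 2, and genotypes were kept only with ≥10 input reads and ≥1 read per output in Illumina sequencing. The sequenced libraries came from one triplicate in vitro selection round, including frozen incubation at −7 °C, of PCR-built, transcribed mutant libraries of each subunit of a heterodimeric triplet polymerase ribozyme.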

Variant	polymerase ribozyme fitness (log ratio)
G47A C72A C82G C88A	-2.25
G45U G93A	-1.79
A46G C73A A108G	-2.82
A46C G63A U96A	-2.58
A46U A66G C123A	-2.03
G45U G110C	-4.47
G47A G48U	-1.13
G47A G48A	-1.62
A46G G57A A83G U112C	0.022
G47A C56U C73U C101U A119G G120U G127A	-1.08
A46U C53U A91U G113U U130A	-4.7
G45U C99A G117C	-6.81
A46U C62U C86A A100U C104A G110C U134G	-5.64
A46C U54A	-0.931
A46G C76U C94G G120C	-1.42
A46U C53G	-0.865
G47A G60C	-1.05
G47A G60U	-0.146
G47A G60A	1.12
G45U U78A	-1.86
A46U C82G U87G	-1.06
A46U G48U	-2.29
A46G C70U	-0.0806
A46U G71A C73A A91G	-5.51

Variant	polymerase ribozyme fitness (log ratio)
A46C U54A A66C U87G G113U	-5.68
A46U C94G	-2.36
A46C C56G C72G U87A A100U C124A	-0.516
A46C C79U C101U G113U	-4.4
G47A C70A C82G	-2.41
A46C G63C G93A U116A G120U G135U	-4.76
A46C U55A G63C	-0.439
A46G C53G A111G	1.36
A46U G47A C72U A121G U130C	0.526
G45U U87A	-1.32
A46U G77A A95G	-1.31
G47A C53A C97A A119G C123A	-4.34
A46C U92C	-1.97
A46U G61C C79U	-1.59
G47A C104U	-1.4
G45U G61C A66U	-3.49
A46G C82U U106A	-0.902
G47A C56U U78A C124A U131A	1.41
A46U U81C A90G C114U	-3.58
A46G C56A C62G U130G U131C	-4.26
A46U A74U C82A	-1.61
A46U C98G	-6.78
A46U C49U G63U C115U	-5.27
G47A G60A C124G	0.279

Variant	polymerase ribozyme fitness (log ratio)
A46C C80A	-3.23
A46C G117A	-2.35
A46G C97U C114G	-4.73
G47A A119U	-1.02
A46C C62G	-2.43
G47A	-0.989
A46C C72A C123U	0.713
A46C C53U U112A	0.835
A46C G60C	-0.75
A46U G63U U96G	-2.43
G45U U129G	-2.58
A46G G61U	-0.252
A46U C101U U132C	-1.92
A46U C62G G110A	-5.8
A46G C72A	0.745
A46C C115G	-2.59
G47A A50U U81A	-0.591
A46C A50G	-0.277
G47A G58C G71U C79U U130C	-0.309
A46C G63U	-2.01
A46U G47A	-2.18
G45U G117U	-3.43
G45U G117A	-1.62
G47A C49U G63C	-1.35

Variant	polymerase ribozyme fitness (log ratio)
A46C U87C C89G U92C	-2.75
A46G A66G	-1.48
A46U C62U A91U A103G U106A C114U	-5.16
A46C C53A A95C G128C	-3.03
A46C G120A U126A	-0.908
A46G G69C G113A	-3.12
A46C C79G	-2.93
A46C C79A	-2.25
A46C C64A	-5.98
G47A C49U G65U G69U C86U G127U	-4.94
A46U G71A C82G U87G	-1.78
G45U U54C U132C	-1.01
G45U G51A	-3.89
A46U C62A A68G G110A	-5.73
G45U G77C	-1.17
G45U U81A	-3.03
A46G G47U	-1.31
G45U U54A	-1.35
A46C A50U C72A	-1.15
A46U C114A	-2.92
G47A C73A	-0.495
A46C C49A G63A	-0.445
A46C G120C	1.36
A46U G71A G93A G120A G122A	-3.97

Variant	polymerase ribozyme fitness (log ratio)
A46U U78C C124A	0.325
A46G A83G	-0.884
A46U C49U C72A	0.459
G45U U116C	-1.67
G45U U116A	-4.04
A46U G48A G52C G61A G120A	-1.18
G45U C102A	-3.34
A46U A74U	-0.906
A46G A74U G77A G113U	-3.68
A46U A74C U92C	-1.48
G45U G69A U78C U87G A111U	-6.45
G47A C85A G117C A121C	-5.39
A46U C79U A105G	-3.11
G47A C64U C98U	-2.79
G45U G71C	-2.68
A46U U87A	-0.324
A46C U81A G93U	-2.96
A46U G48C G128U	-3.83
A46U G120A G135A	-0.18
A46U G47A C49U G61C C72U C85G	-2.44
G45U G63A U131A	-1.33
G47A C72U A83U	-1.18
A46U U55A A121G	0.98
G45U U109A	-6.02

Variant	polymerase ribozyme fitness (log ratio)
A46U U54G G69U U78C G117U	-4.42
A46C G77U A100C	-2.17
A46U C62A U133A	-2.52
A46U U112G	-1.08
G45U U55C G61U	-1.09
A46U A84U A95U C102A	-4.22
A46G G63C	-1.22
G47A C72U A121C U129A	0.0942
A46G G58U G69A G110A	-4.68
A46C G47U	-5.94
A46U C123A	-0.661
A46U C123U	0.165
A46G A50U C88A C89A C124A U133A	-0.0922
A46G C56U G110U U116A	-2.84
A46G C53A G127C	-1.2
A46U A74U A119G	0.444
A46C G93U	-1.86
G47A G48A C53G G69U U132A	-0.097
A46C G69C U81C U112G	-4.07
G47A G58A G60A C79U	-2.31
A46U U78C	-1.07
G47A C53U A95G	-3.19
A46U G71A C72G A119G	-1.69
G45U U92C	-2.47

Variant	polymerase ribozyme fitness (log ratio)
A46C C86U C88A A121C U130C	0.304
G47A A50G G113A	-2.34
G47A C62U	-1.85
G47A C62A	-1.78
G45U G47U G113A	-3.45
G47A A50U C53A U78G	-2.33
A46U G48A G52C G61U G120A	-0.93
A46U C70A G120U	-1.59
A46G G71U	-1.19
A46U C73G U133G	-1.42
A46C C80G U130C	-6.42
G47A C88U C102U	-3.29
A46U C64U U109A C124A	-5.73
A46C A74U	-0.673
A46C C53G G57C A66C C115U G122A	-6.53
G45U G127U	-3
A46C U92C U106G C115U U125G U132A	-6.92
A46G C88U	-0.84
A46U G110U	-2.33
A46U G110C	-4.29
A46G G107A	-4.88
A46U C101U A121U	0.775
G47A C89A	-4.43
